The values below are quoted from earlier work in patent US20210077665A1, “METHODS AND DEVICES FOR LYMPHATIC TARGETING” (priority 2005, published 2021).

In general, IC50 refers to the concentration that inhibits the measured activity by half.

The conditions of series [1]: at 44 h; pleural injection.
Series [2] concerns H460 lung cancer cells.

Turning to “111In-avidin: 111In labeled avidin injected in the pleural space (literature)”, the “uptake in mediastinal nodes” value in series [1] was 3.3%.

As for `CC(=O)O[C@H]1C(=O)[C@@]2(C)[C@H]([C@H](OC(=O)c3ccccc3)[C@]3(O)C[C@H](OC(=O)[C@H](O)[C@@H](NC(=O)c4ccccc4)c4ccccc4)C(C)=C1C3(C)C)[C@]1(OC(C)=O)CO[C@@H]1C[C@@H]2O` [Paclitaxel, paclitaxel], the IC50 in series [2] is 5 nM.
